From paper PMC8464830

How the values were obtained:
Assay in all cases: SPR
[1] = target: HIV-1 MA protein from clade B (NL4-3), full-length (HIV-1 clade B (NL4-3))
[2] = target: HIV-1 MA protein from clade B (LAI), full-length (HIV-1 clade B (LAI))
[3] = target: HIV-1 MA protein from clade D (94UG114.1), full-length (HIV-1 clade D (94UG114.1))

Work on “human Calmodulin-1 (from UniProt P0DP23 1-149) (natural protein)” yielded a Kd [1] of 27.6 µM, a Kd [2] of 49 µM and a Kd [3] of 33.3 µM.
